# In the supplement of paper PMC11246515:
# ± gives the standard deviation of the averaged measurements.
# Test: total protein half-life in vivo (active degradation + dilution); higher = more stable protein
# [1] = E. coli NCM3722 delta-clpP, growth: N-lim chemostat, doubling time 6 h
# [2] = E. coli NCM3722 delta-hslV, growth: N-lim chemostat, doubling time 6 h
# [3] = E. coli NCM3722 delta-lon, growth: N-lim chemostat, doubling time 6 h
# [4] = E. coli NCM3722 delta-smpB, growth: N-lim chemostat, doubling time 6 h
# [5] = wild type E. coli NCM3722, growth: C-lim chemostat, doubling time 3 h
# [6] = wild type E. coli NCM3722, growth: C-lim chemostat, doubling time 6 h
# [7] = wild type E. coli NCM3722, growth: C-lim chemostat, doubling time 12 h
# [8] = wild type E. coli NCM3722, growth: N-lim chemostat, doubling time 6 h
# [9] = wild type E. coli NCM3722, growth: N-lim chemostat, doubling time 12 h
# [10] = wild type E. coli NCM3722, growth: P-lim chemostat, doubling time 6 h
# [11] = wild type E. coli NCM3722, growth: P-lim chemostat, doubling time 12 h
# [12] = E. coli NCM3722 delta-clpP delta-lon delta-hslV, growth: N-lim chemostat, doubling time 6 h
Sequence,total protein half-life in vivo [1] [h],total protein half-life in vivo [2] [h],total protein half-life in vivo [3] [h],total protein half-life in vivo [4] [h],total protein half-life in vivo [5] [h],total protein half-life in vivo [6] [h],total protein half-life in vivo [7] [h],total protein half-life in vivo [8] [h],total protein half-life in vivo [9] [h],total protein half-life in vivo [10] [h],total protein half-life in vivo [11] [h],total protein half-life in vivo [12] [h]
MLKPDNLPVTFGKNDVEIIARETLYRGFFSLDLYRFRHRLFNGQMSHEVRREIFERGHAAVLLPFDPVRDEVVLIEQIRIAAYDTSETPWLLEMVAGMIEEGESVEDVARREAIEEAGLIVKRTKPVLSFLASPGGTSERSSIMVGEVDATTASGIHGLADENEDIRVHVVSREQAYQWVEEGKIDNAASVIALQWLQLHHQALKNEWA [Q93K97],4.47 ± 0.8,4.6 ± 0.65,4.759 ± 0.044,4.63 ± 0.46,3.05 ± 0.36,5.79 ± 0.16,11 ± 0.82,4.23 ± 0.34,7.1411 ± 0.0014,5.98 ± 0.42,12.9 ± 0.41,
MLKPEMIEKLNEQMNLELYSSLLYQQMSAWCSYHTFEGAAAFLRRHAQEEMTHMQRLFDYLTDTGNLPRINTVESPFAEYSSLDELFQETYKHEQLITQKINELAHAAMTNQDYPTFNFLQWYVSEQHEEEKLFKSIIDKLSLAGKSGEGLYFIDKELSTLDTQN [P0A998],3.41 ± 0.55,3.94 ± 1.3,4.12 ± 0.86,3.38 ± 1.6,,5.8 ± 0.56,,3.33 ± 0.25,4.479 ± 0.025,4.92 ± 0.45,10.6 ± 0.44,5.44 ± 1.7
MLKRKKVKPITLRDVTIIDDGKLRKAITAASLGNAMEWFDFGVYGFVAYALGKVFFPGADPSVQMVAALATFSVPFLIRPLGGLFFGMLGDKYGRQKILAITIVIMSISTFCIGLIPSYDTIGIWAPILLLICKMAQGFSVGGEYTGASIFVAEYSPDRKRGFMGSWLDFGSIAGFVLGAGVVVLISTIVGEANFLDWGWRIPFFIALPLGIIGLYLRHALEETPAFQQHVDKLEQGDREGLQDGPKVSFKEIATKYWRSLLTCIGLVIATNVTYYMLLTYMPSYLSHNLHYSEDHGVLIIIAIMIGMLFVQPVMGLLSDRFGRRPFVLLGSVALFVLAIPAFILINSNVIGLIFAGLLMLAVILNCFTGVMASTLPAMFPTHIRYSALAAAFNISVLVAGLTPTLAAWLVESSQNLMMPAYYLMVVAVVGLITGVTMKETANRPLKGATPAASDIQEAKEILVEHYDNIEQKIDDIDHEIADLQAKRTRLVQQHPRIDE [P0C0L7],4.97 ± 0.25,4.59 ± 0.35,4.34 ± 0.14,5.04 ± 0.79,,4.62 ± 0.43,7.56 ± 3.2,4.46 ± 0.41,10.4 ± 2.3,4.78 ± 0.066,7.9 ± 0.16,5.246 ± 0.018
MLKTISPLISPELLKVLAEMGHGDEIIFSDAHFPAHSMGPQVIRADGLLVSDLLQAIIPLFELDSYAPPLVMMAAVEGDTLDPEVERRYRNALSLQAPCPDIIRINRFAFYERAQKAFAIVITGERAKYGNILLKKGVTP [P0AEN8],6.25 ± 0.67,6.67 ± 1.6,,5.51 ± 0.094,3.05 ± 0.092,6.7 ± 0.48,13.2 ± 0.83,5.36 ± 0.38,10.4 ± 1.1,5.89 ± 0.63,12.3 ± 0.71,6.09 ± 0.27
MLKVEMLSTGDEVLHGQIVDTNAAWLADFFFHQGLPLSRRNTVGDNLDDLVTILRERSQHADVLIVNGGLGPTSDDLSALAAATAKGEGLVLHEAWLKEMERYFHERGRVMAPSNRKQAELPASAEFINNPVGTACGFAVQLNRCLMFFTPGVPSEFKVMVEHEILPRLRERFSLPQPPVCLRLTTFGRSESDLAQSLDTLQLPPGVTMGYRSSMPIIELKLTGPASEQQAMEKLWLDVKRVAGQSVIFEGTEGLPAQISRELQNRQFSLTLSEQFTGGLLALQLSRAGAPLLACEVVPSQEETLAQTAHWITERRANHFAGLALAVSGFENEHLNFALATPDGTFALRVRFSTTRYSLAIRQEVCAMMALNMLRRWLNGQDIASEHGWIEVVESMTLSV,4.36 ± 0.044,4.01 ± 0.17,4.79 ± 0.35,4.32 ± 0.093,3.098 ± 0.027,5.27 ± 0.91,9.19 ± 2.1,3.94 ± 0.2,6.9 ± 0.57,6.25 ± 0.51,11.2 ± 0.81,4.98 ± 0.18
MLKVLLLFVLLIAGIVVGPMIAGHQGYVLIQTDNYNIETSVTGLAIILILAMVVLFAIEWLLRRIFRTGAHTRGWFVGRKRRRARKQTEQALLKLAEGDYQQVEKLMAKNADHAEQPVVNYLLAAEAAQQRGDEARANQHLERAAELAGNDTIPVEITRVRLQLARNENHAARHGVDKLLEVTPRHPEVLRLAEQAYIRTGAWSSLLDIIPSMAKAHVGDEEHRAMLEQQAWIGLMDQARADNGSEGLRNWWKNQSRKTRHQVALQVAMAEHLIECDDHDTAQQIIIDGLKRQYDDRLLLPIPRLKTNNPEQLEKVLRQQIKNVGDRPLLWSTLGQSLMKHGEWQEASLAFRAALKQRPDAYDYAWLADALDRLHKPEEAAAMRRDGLMLTLQNNPPQ [P0ACB7],6.4161 ± 0.0029,,6.1592 ± 0.004,5.98 ± 0.073,3.13 ± 0.12,6.13 ± 0.2,13.2 ± 0.85,6.64 ± 0.65,12.6 ± 0.5,6.1 ± 0.41,12.6 ± 0.95,5.91 ± 0.1
MLLEQGWLVGARRVPSPHYDCRPDDETPTLLVVHNISLPPGEFGGPWIDALFTGTIDPQAHPFFAEIAHLRVSAHCLIRRDGEIVQYVPFDKRAWHAGVSQYQGRERCNDFSIGIELEGTDTLAYTDAQYQQLAAVTRALIDCYPDIAKNMTGHCDIAPDRKTDPGPAFDWARFRVLVSKETT,3.72,3.07 ± 0.013,3.75 ± 0.89,2.96 ± 0.27,3.18 ± 0.31,4.11 ± 0.3,7.89 ± 1.5,2.88 ± 0.77,5.25 ± 0.51,4.46 ± 0.12,9.44 ± 0.099,5.19 ± 0.54
MLLNALASLGHKGIKTLRTFGRAGLMLFNALVGKPEFRKHAPLLVRQLYNVGVLSMLIIVVSGVFIGMVLGLQGYLVLTTYSAETSLGMLVALSLLRELGPVVAALLFAGRAGSALTAEIGLMRATEQLSSMEMMAVDPLRRVISPRFWAGVISLPLLTVIFVAVGIWGGSLVGVSWKGIDSGFFWSAMQNAVDWRMDLVNCLIKSVVFAITVTWISLFNGYDAIPTSAGISRATTRTVVHSSLAVLGLDFVLTALMFGN,6.31,6.03,4.82,5.29,3.19,,,7.45,11.3,> 8,11.55 ± 0.11,
MLMITSFANPRVAQAFVDYMATQGVILTIQQHNQSDVWLADESQAERVRAELARFLENPADPRYLAASWQAGHTGSGLHYRRYPFFAALRERAGPVTWVMMIACVVVFIAMQILGDQEVMLWLAWPFDPTLKFEFWRYFTHALMHFSLMHILFNLLWWWYLGGAVEKRLGSGKLIVITLISALLSGYVQQKFSGPWFGGLSGVVYALMGYVWLRGERDPQSGIYLQRGLIIFALIWIVAGWFDLFGMSMANGAHIAGLAVGLAMAFVDSLNARKRK,7.254 ± 0.027,,,4.85,,5.67,7.94,,11.7,5.84,11.6 ± 1.8,5.94 ± 0.09
MLNETPALAPDGQPYRLLTLRNNAGMVVTLMDWGATLLSARIPLSDGSVREALLGCASPECYQDQAAFLGASIGRYANRIANSRYTFDGETVTLSPSQGVNQLHGGPEGFDKRRWQIVNQNDRQVLFALSSDDGDQGFPGNLGATVQYRLTDDNRISITYRATVDKPCPVNMTNHVYFNLDGEQSDVRNHKLQILADEYLPVDEGGIPHDGLKSVAGTSFDFRSAKIIASEFLADDDQRKVKGYDHAFLLQAKGDGKKVAAHVWSADEKLQLKVYTTAPALQFYSGNFLGGTPSRGTEPYADWQGLALESEFLPDSPNHPEWPQPDCFLRPGEEYSSLTEYQFIAE [P0A9C3],4.67 ± 0.097,,4.63 ± 0.11,4.275 ± 0.041,3.16 ± 0.33,6.76 ± 0.95,12.3 ± 1.5,4.71 ± 0.91,7.76 ± 0.98,6.38 ± 0.48,,5.1 ± 0.083
MLNSFKLSLQYILPKLWLTRLAGWGASKRAGWLTKLVIDLFVKYYKVDMKEAQKPDTASYRTFNEFFVRPLRDEVRPIDTDPNVLVMPADGVISQLGKIEEDKILQAKGHNYSLEALLAGNYLMADLFRNGTFVTTYLSPRDYHRVHMPCNGILREMIYVPGDLFSVNHLTAQNVPNLFARNERVICLFDTEFGPMAQILVGATIVGSIETVWAGTITPPREGIIKRWTWPAGENDGSVALLKGQEMGRFKLGSTVINLFAPGKVNLVEQLESLSVTKIGQPLAVSTETFVTPDAEPAPLPAEEIEAEHDASPLVDDKKDQV [P0A8K1],6.33 ± 0.086,5.99 ± 0.61,5.79 ± 0.1,6 ± 0.58,2.76 ± 0.4,6.32 ± 0.66,12.8 ± 0.63,6.81 ± 0.24,,6.16 ± 0.32,13.3 ± 0.12,6.31 ± 0.2
MLNYVIKRLLGLIPTLFIVSVLVFLFVHMLPGDPARLIAGPEADAQVIELVRQQLGLDQPLYHQFWHYISNAVQGDFGLSMVSRRPVADEIASRFMPTLWLTITSMVWAVIFGMAAGIIAAVWRNRWPDRLSMTIAVSGISFPAFALGMLLIQVFSVELGWLPTVGADSWQHYILPSLTLGAAVAAVMARFTRASFVDVLSEDYMRTARAKGVSETWVVLKHGLRNAMIPVVTMMGLQFGFLLGGSIVVEKVFNWPGLGRLLVDSVEMRDYPVIQAEILLFSLEFILINLVVDVLYAAINPAIRYK,5.94 ± 1,6.89 ± 0.77,6.12 ± 1.5,5.48 ± 0.069,3.13 ± 0.44,6.58 ± 0.59,11.4 ± 1.1,5.84 ± 0.41,11.1 ± 0.85,5.68,12.6 ± 1.1,6.23 ± 0.21
MLPPYFLFKEMTDTQYIGRFAPSPSGELHFGSLIAALGSYLQARARQGRWLVRIEDIDPPREVPGAAETILRQLEHYGLHWDGDVLWQSQRHDAYREALAWLHEQGLSYYCTCTRARIQSIGGIYDGHCRVLHHGPDNAAVRIRQQHPVTQFTDQLRGIIHADEKLAREDFIIHRRDGLFAYNLAVVVDDHFQGVTEIVRGADLIEPTVRQISLYQLFGWKVPDYIHLPLALNPQGAKLSKQNHAPALPKGDPRPVLIAALQFLGQQAEAHWQDFSVEQILQSAVKNWRLTAVPESAIVNSTFSNASC,3.9,,5.27,3.67 ± 0.12,3.26 ± 0.7,5.73,3.64,3.84,,4.7,9.87 ± 0.39,
MLPSISINNTSAAYPESINENNNDEVNGLVQEFKNLFNGKEGISTCIKHLLELIKNAIRVNDDPYRFNINNSSVTYIDIDSNDTDHITIGIDNQEPIELPANYKDKELVRTIINDNIVEKTHDINNKEMIFSALKEIYDGDPGFIFDKISHKLRHTVTEFDESGKSEPTDLFTWYGKDKKGDSLAIVIKNKNGNDYLSLGYYDQDDYHIQRGIRINGDSLTQYCSENARSASAWFESSKAIMAESFATGSDHQVVNELNGERLREPNDVFKRYGRAIRYDFQVDDAKYKCDHLKEIVSTLVGNKINVGHSQKIYKHFKDLEGKIEERLQNRQAEYQNEINQPSAPGVNFDDI,,,,,,,,5.3,,,,
MLQHYSVSWKKGLAALCLLAVAGLSGCDQQENAAAKVEYDGLSNSQPLRVDANNHTVTMLVQINGRFLTDDTRHGIVFKDGSNGHKSLFMGYATPKAFYEALKEAGGTPGENMTMDNKETTHVTGSKLDISVNWQGAAKAYSFDEVIVDSNGKKLDMRFGGNLTAAEEKKTGCLVCLDSCPVGIVSNATYTYGAVEKRGEVKFKGNASVLPADNTLATVTFKIAE,6.08 ± 0.12,6.34 ± 0.64,6.31 ± 0.53,6.66 ± 0.39,2.87 ± 0.32,6.91 ± 0.16,,6.55 ± 0.35,12.4 ± 0.69,4.96 ± 0.71,14.84 ± 0.069,5.59 ± 0.95
MLQIIRGKLVIFLITLCLFVVYLGFDNNSNSDIVFYGHKTPKSVEIYLSEKNIIYKIINDQKISRGNGHFISIMVNNYRTHCGVVDINLNFFNDILYSVRLKNISKLENMEFCATKQRVYFSDKNKKASYKIINYGDYYDVDYYDNNLKNEVFDWIGKWS,,,,,2.67,4.29,,,,2.67,7,
MLQLLLAVFIGGGTGSVARWLLSMRFNPLHQAIPLGTLTANLIGAFIIGIGFAWFSRMTNIDPVWKVLITTGFCGGLTTFSTFSAEVVFLLQEGRFGWALLNVFVNLLGSFAMTALAFWLFSASTAH,,5.83,,,,,,,,,,
